From patent publication US20170166631A1 (published 2017)

T1: HD49 (huntingtin exon 1 protein with 49 polyQ repeats after cleavage of the GST tag; aggregation reaction) (human, UniProt P42858 1-88)
T1 chain: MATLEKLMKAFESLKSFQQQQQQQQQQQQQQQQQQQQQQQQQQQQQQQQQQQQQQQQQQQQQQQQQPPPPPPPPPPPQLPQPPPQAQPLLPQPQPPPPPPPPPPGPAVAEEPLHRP

T2: HD21 (huntingtin exon 1 protein with 21 polyQ repeats after cleavage of the GST tag; aggregation reaction) (human, UniProt P42858 1-88)
T2 chain: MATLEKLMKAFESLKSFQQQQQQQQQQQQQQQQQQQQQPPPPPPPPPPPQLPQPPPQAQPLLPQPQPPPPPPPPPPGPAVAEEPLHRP

T3: BSA-coupled synthetic peptide of the P-rich domain sequence of huntingtin exon 1 (coupled to BSA)
T3 peptide: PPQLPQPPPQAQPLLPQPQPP

B1: NI-302.12H2 (antibody, V domains shown)
VH: EVQLVQSGGGLVQPGGSLRLSCEASGFTFSNYAMGWVRQAPGKGLEWVSVISGTGGSTYYADSVKGRFTISRDNSMNTLYLQMNSPRADDTAVYYCAKDLRKISGPLYYYGMDVWGQGTTVTVSS
VL: EIVLTQSPGTLSLSPGERATLSCRASQSVSSGYLAWYQQKPGQAPRLLIYGASTRATGIPDRFSGSGSGTDFTLTISRLEPEDFAVYYCQHYGASSYTFGQGTKLEIK
B2: NI-302.8M1 (antibody, V domains shown)
VH: EVQLVQSGAEVKKPGASVKVSCKASGYTFTIYYMHWVRQAPGQGLEWMGGISPSGAHTMYAQNFQGRVTVTRDTSTSTVYMELSSLRSEDTAVYYCARGSTVTNYRPFDYWGQGTLVTVSS
VL: DIQMTQSPSSLSASVGDRVTITCRASQDISNYLAWYQQKPGKVPKLLIFAASTLQSGVPSRFGGSGSGTDFTLTISSLQPEDVATYYCQNYNSGPPPFGPGTKVDIK
B3: NI-302.4A6 (antibody, V domains shown)
VH: EVQLVESGGGLVQPGGSLRLSCAASGFTFSAYAMSWVRQAPGKGLEWVSTISGSGGSTYYADSVKGRFSISRDNSKNTLYLQMNSLRAEDTAVYFCAKVTTELYGANSYYYYMDVWGKGTTVTVSS
VL: EIVLTQSPGTLSLSPGERATLSCRASQSVVSRYLAWYQQKPGQAPRLLIYGASSRATGIPDRFSGSGSGTDFTLTISRLEPEDFAMYYCQLYGNSQTFGQGTKVEIK
B4: NI-302.55D8 (antibody, V domains shown)
VH: QVQLVQSGSEVKKPGASVKVSCKASGYTFTDYYIHWVRQAPGQGLEWMGRINPNNGGTNYAQNFQGWVTMTRDTSISTAYMELSRLRSDDTAVYYCARVGGELLREGGYHYYMDVWGKGTTVTVSS
VL: QSVLTQPPSVSGAPGQRVTISCTGNSSNIGAGYDVHWYQQLPGTAPKLLIFDNTNRPSGVPDRFSGSKSGTSASLAITGLQAEDEANYHCQSYDNSLSGSWVFGGGTKLTVL
B5: NI-302.6N9 (antibody, V domains shown)
VH: EVQLVESGGDLVQPGGSLRLSCVVSGFTFSSYAMTWVRQAPGKGLAWVSTISATGGSTFYTDSVRGRFTISRDNSKNTLYLQMNSLRTDDTAIYYCVKDLFGVDTSYYGMDVWGQGTTVTVSS
VL: EIVLTQSPGTLSLSPGERATLSCRPSQSVSGRYVAWYQQKPGQAPRLLFYAASNRAIGIPDRFSGSGSGTDFTLTISRLEPEDFAVYYCQHYGASSYTFGPGTKVDIK
B6: NI-302.74C11 (antibody, V domains shown)
VH: EVQLVQSGTEVQKPGASVKVSCKASGYSFTGYFLHWVRQAPGQGLEWMGWINPNSGDTNYAEKFRGRIIMTRDTSVSTAHMELSSLRFDDTALYYCTREAPDPGAETDVWGQGTTVTVSS
VL: QSVLTQPPSVSVSPGQTARITCSGDAVPKQYIYWYQQKPGQAPILVIYKDTQRPSGIPERFSGSNSGTTVTLTITGVQADDEGDYYCQSADSSATWVFGGGTKLTVL
B7: NI-302.31F11 (antibody, V domains shown)
VH: EVQLVESGGGLIQPGGSLRLSCAASGFTVSSTYMSWVRQAPGKGLECVSVIFSGADTYYADSVKGRFTVSRDNSKNTLFLQMNSLRVEDTATYYCVRHYYGSDLPSDFWGQGTLVTVSS
VL: DVVMTQSPLSLPVAPGEPASISCRSSQSLLYSNGYNYLDWYLQKPGKPPQLLVYLGSDRASGVPDRFSGSGSGKDFTLNISRVEAEDVGVYYCMQGLQSPWTFGQGTKLEIK
B8: NI-302.7D8 (antibody, V domains shown)
VH: QVQLVQSGSELKKPGASVKVSCKASGYNFNNYAINWLRQAPGQGLEWMGWINTITGHPTYAQGFKGRFVFSLDTSVSTAYLQISSLKPEDTAVYYCARTYSNYGEFDYWGQGTLVTVSS
VL: QSALTQPASVSGSRGQSITISCTGTSSDVGSYNLVSWYQQYPGKAPKLIIHEGSERPSGVSNRFSGSKSGNTASLTISGLQAEDEADYYCCSYAGTTTFVLFGGGTKLTVL
B9: NI-302.15F9 (antibody, V domains shown)
VH: EVQLVESGGGLVTPGGSLRLSCEASGFLFKNSSMNWVRQTPGKGLEWVSSIDTSATNYKYYADSVKGRFTISRDDATNSLYLQMNSLRADDTATYYCARGYYTPRDFDYWGQGTLVTVSS
VL: DVVMTQSPQTLSVSLGQAASISCRSSQSLLYRDNNTYLNWFHQRPGQSPRRLIYRASDRDSGVPDRFSGGGSGTDFTLKISGVEAEDVGTYYCMQGTHWPRTFGQGTKVEIK
B10: NI-302.52C9 (antibody, V domains shown)
VH: EVQLVQSGGGLVQPGGSLRLSCAGSGFTVSDTYMSWVRQAPGKGLEWVSGIHAGGETYYADSVKGRFTISRDNSKNTLYLQMNRLTPEDTAVFYCARHYYGNDDDTDYWGQGTLVTVSS
VL: DVVMTQSPLSLPVTPGEPASISCRSSQSLLHSNGYNYLDWYVQKPGQSPQLLIYLGSTRASGVPDRFSGSGSGTDFTLKISRVEAEDVGVYYCLQAQQIPWTFGQGTKVEIK
B11: NI-302.18A1 (antibody, V domains shown)
VH: QLQLQESGPGLVKPSEALSLTCTVSGGSITTDYYYWGWIRQSPGKGLEWVGTIYFGGATYYNPSLRNRVSISVDTSNTRLSLRLISLSAADTAVYYCARVGYLDRSGLLVGQGTLVTVSS
VL: EIVLTQSPLSVPVTPGEPASISCRSSQSLLHNNGYNYLDWYLKKPGQSPQLLIYLGSTRASGVPDRFSASGSGTDFTLEISRVEAEDVGVYYCMQALQTPPTFGRGTKVEIK
B12: NI-302.8F1 (antibody, V domains shown)
VH: EVQLVESGGGLVKPGGSLTISCAASGFTFSNAWMNWVRQAPGKGLEWVGHIRTQAEGGTSDYAAPVKGRFTISRDDSKNTLYLQMNSLKTEDTAVYYCIPPPYYYYYGLDVWGQGTTVTVSS
VL: QSALTQPASVSGSPGQSITISCTGASSDVGTYDLVSWYQQHPGKAPKLIIYEVNKRPSGVSYRFSASKSANTASLTISGLQAEDEAEYYCCSYAGYSTVFGGGTKLTVL

Molecular target: T1, HD49 (huntingtin exon 1 protein with 49 …)
Assay: ELISA

Row | Binder | EC50
1 | B1 | 40 pM
2 | B2 | 3 pM
3 | B3 | 3000 pM

These binders were tested against T4, GST-HttExon1Q21 (recombinant huntingtin exon 1 protein with 21 polyQ repeats fused to an N-terminal GST tag) (;human, UniProt P08515 1-218 = GST; P42858 1-88) (assay: ELISA).

Row | Binder | EC50
4 | B1 | 40 pM
5 | B2 | 2 pM
6 | B3 | 3000 pM

Molecular target: T2, HD21 (huntingtin exon 1 protein with 21 …)
Assay: ELISA

Row | Binder | EC50
7 | B4 | 1200 pM

Molecular target: T1, HD49 (huntingtin exon 1 protein with 49 …)
Assay: ELISA
Remark: another data set of the same source

Row | Binder | EC50
8 | B4 | 1700 pM

Molecular target: T4, GST-HttExon1Q21 (recombinant huntingtin …)
Assay: ELISA
Remark: another data set of the same source

Row | Binder | EC50
9 | B4 | ~200 pM

Molecular target: T2, HD21 (huntingtin exon 1 protein with 21 …)
Assay: ELISA
Remark: another data set of the same source

Row | Binder | EC50
10 | B5 | 210 pM
11 | B6 | 500 pM
12 | B7 | 4300 pM

Molecular target: T1, HD49 (huntingtin exon 1 protein with 49 …)
Assay: ELISA
Remark: another data set of the same source

Row | Binder | EC50
13 | B5 | 190 pM
14 | B6 | 500 pM
15 | B7 | 600 pM

Molecular target: T4, GST-HttExon1Q21 (recombinant huntingtin …)
Assay: ELISA
Remark: another data set of the same source

Row | Binder | EC50
16 | B5 | 240 pM
17 | B6 | 500 pM
18 | B7 | 900 pM

Molecular target: T2, HD21 (huntingtin exon 1 protein with 21 …)
Assay: ELISA
Remark: another data set of the same source

Row | Binder | EC50
19 | B8 | > 100000 pM

Molecular target: T4, GST-HttExon1Q21 (recombinant huntingtin …)
Assay: ELISA
Remark: another data set of the same source

Row | Binder | EC50
20 | B8 | 51000 pM

Molecular target: T3, BSA-coupled synthetic peptide of the …
Assay: ELISA

Row | Binder | EC50
21 | B7 | 500 pM

Molecular target: T2, HD21 (huntingtin exon 1 protein with 21 …)
Assay: ELISA
Remark: another data set of the same source

Row | Binder | EC50
22 | B8 | > 100000 pM
23 | B9 | 35000 pM
24 | B5 | 210 pM
25 | B6 | 500 pM
26 | B7 | 4300 pM

Molecular target: T1, HD49 (huntingtin exon 1 protein with 49 …)
Assay: ELISA
Remark: another data set of the same source

Row | Binder | EC50
27 | B9 | 6000 pM
28 | B1 | 40 pM
29 | B5 | 190 pM
30 | B6 | 500 pM
31 | B2 | 3 pM
32 | B7 | 600 pM
33 | B3 | 3000 pM

Molecular target: T4, GST-HttExon1Q21 (recombinant huntingtin …)
Assay: ELISA
Remark: another data set of the same source
Target sequence in this assay (P08515 1-218, tags or fused parts left off): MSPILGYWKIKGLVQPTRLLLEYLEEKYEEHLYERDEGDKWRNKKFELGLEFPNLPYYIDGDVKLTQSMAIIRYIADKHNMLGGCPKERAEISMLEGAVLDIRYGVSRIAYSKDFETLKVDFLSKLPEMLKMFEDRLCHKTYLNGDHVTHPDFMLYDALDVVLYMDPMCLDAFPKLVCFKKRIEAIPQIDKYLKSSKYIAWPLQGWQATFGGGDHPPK

Row | Binder | EC50
34 | B8 | 51000 pM
35 | B9 | 11000 pM
36 | B1 | 40 pM
37 | B5 | 240 pM
38 | B6 | 500 pM
39 | B2 | 2 pM
40 | B7 | 900 pM
41 | B3 | 3000 pM

Molecular target: T2, HD21 (huntingtin exon 1 protein with 21 …)
Assay: ELISA
Remark: another data set of the same source

Row | Binder | EC50
42 | B10 | 28000 pM
43 | B4 | 1200 pM
44 | B11 | 20 pM
45 | B12 | 1600 pM

Molecular target: T1, HD49 (huntingtin exon 1 protein with 49 …)
Assay: ELISA
Remark: another data set of the same source

Row | Binder | EC50
46 | B10 | 30000 pM
47 | B4 | 1700 pM
48 | B11 | 30 pM
49 | B12 | 1900 pM

Molecular target: T4, GST-HttExon1Q21 (recombinant huntingtin …)
Assay: ELISA
Remark: another data set of the same source
Target sequence in this assay (P08515 1-218, tags or fused parts left off): as above

Row | Binder | EC50
50 | B10 | 10200 pM
51 | B4 | 200 pM
52 | B11 | 40 pM
53 | B12 | 800 pM
